Data reported in patent publication US20170058032A1 (published 2017).

Target: T1, extracellular domain of human CD79b fused to Fc (huCD79becd-Fc) (UniProt P40259 29-159)
T1 chain: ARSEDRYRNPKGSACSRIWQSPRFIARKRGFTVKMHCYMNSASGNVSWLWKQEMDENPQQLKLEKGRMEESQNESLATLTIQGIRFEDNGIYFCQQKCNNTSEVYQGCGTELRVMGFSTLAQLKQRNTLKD
Assay: Biacore; Fab

Kd: 0.2 µM
B1: MA79b Fab (Fab, V domains shown)
VH: EVQLQQSGAELMKPGASVKISCKATGYTFSSYWIEWVKQRPGHGLEWIGEILPGGGDTNYNEIFKGKATFTADTSSNTAYMQLSSLTSEDSAVYYCTRRVPVYFDYWGQGTSVTVSS
VL: DIVLTQSPASLAVSLGQRATISCKASQSVDYDGDSFLNWYQQKPGQPPKLFIYAASNLESGIPARFSGSGSGTDFTLNIHPVEEEDAATYYCQQSNEDPLTFGAGTELELKR
